# Source: patent publication US10272135B2, “Apolipoprotein O and fragments thereof for inducing apoptosis in a cancerous cell” (INSERM (INSTITUT NATIONAL DE LA SANTÉ ET DE LA RECHERCHE …, priority 2014, dated 2019)
# B1: ApoO: 198-amino acid apolipoprotein, SEQ ID NO: 1; tested by overexpression from expression vectors or transgene (protein, listed as Homo sapiens)
# chain: MFKVIQRSVGPASLSLLTFKVYAAPKKDSPPKNSVKVDELSLYSVPEGQSKYVEEARSQLEESISQLRHYCEPYTTWCQETYSQTKPKMQSLVQWGLDSYDYLQNAPPGFFPRLGVIGFAGLIGLLLARGSKIKKLVYPPGFMGLAASLYYPQQAIVFAQVSGERLYDWGLRGYIVIEDLWKENFQKPGNVKNSPGTK
# Key:
# Assay type in all cases: cell-based
# H9c2 cardiac myoblasts [1] = assay: Measurement of O2 consumption (Oroboros Oxygraph-2k) in cardiac myoblasts
# Text: After ethical committee approval, all patients in this study gave written consent for sample collection and molecular analysis prior to inclusion. Patients were carefully selected by physicians from the Department of Cardiology, Toulouse University Hospital, prior to coronary by-pass surgery. Bioinformatics. Microarray expression data from human heart samples were downloaded from the GEO repository (GSE1145). This series consisted of 107 myocardial samples collected from patients undergoing cardiac transplantation whose failure arises from different etiologies (e.g. idiopathic dilated cardiomyopathy, ischemic cardiomyopathy, valvular cardiomyopathy, and hypertrophic cardiomyopathy) and from “normal” organ donors whose hearts cannot be used for transplants. Arrays were intensity normalized and hierarchical clustering (average group linkage, Pearson correlation, threshold r=0.8) was applied to identify groups of co-expressed genes. ApoO expression levels were plotted for the 107 human hearts tested and used to define relevant molecular pathways using both Toppgene and Ingenuity Pathway Analysis (Ingenuity systems, Redwood City, Calif., USA). ApoO subcellular localization was predicted using Mitopred, mitoprot and YLoc. Animals: All animal Studies followed the INSERM Institute Animal Facility guidelines and were approved by the animal care committees of the INSERM I2MC UMR 1048. All animal procedures were performed according to the guidelines of the French Ministry of Agriculture. Animals were housed at the Toulouse I2MC animal facility in a room lit 12 h per day (6 AM-6 PM) at an ambient temperature of 22+/−1° C. Construction of ApoO Expression Vectors To overexpress human ApoO (pTT-ApoO), the ApoO coding sequence was amplified using primers hApoO5BamPTT (SEQ ID NO: 2) and hApoO3BamPTT (SEQ ID NO: 3) and cloned into the BamH1 site of pTT expression vector. pSNAP-ApoO was generated by PCR amplification of pTT-ApoO using primers SnapApoEcorV-F (SEQ ID NO: 4) and SnapApoEcorV-R (SEQ ID NO: 5) and cloned into the EcoRV site of pSNAP-Tag® (Ozyme, Saint-Quentin-en-Yvelines, France). pGEX2T-ApoO was constructed by PCR amplification of pTT-ApoO using hApoOpGEX1FBam (SEQ ID NO: 6) and hApoOpGEX1RSma (SEQ ID NO: 7) and cloned into the Bam HI/Sma I site of pGEX2T (Promega, Charbonnières-les-Bains). All primers used in this work were synthesized by Eurogentec France (Angers). All restriction enzymes used were from New England Biolabs (Ozyme, Saint-Quentin-en-Yvelines). All ApoO sequences within the expression vectors were verified by DNA double strand sequencing using ABI PRISM®BigDye™ Terminator version 3.1 Ready reaction cycle sequencing kit (Life Technologies SAS, Villebon sur Yvette) and loaded on an ABI 3130XL DNA sequencing instrument (Life Technologies SAS, Villebon sur Yvette). Cell Culture and Tranfection of H9C2 Cardic Myoblasts H9c2 were obtained from the European Collection of Cell Cultures (Salisbury, England). H9c2 cells were cultured in Dulbecco's modified Eagle medium (Life Technologies SAS, Villebon sur Yvette) adjusted to contain 1.5 g/liter sodium bicarbonate and supplemented with antibiotic-antimycotic solution (Life Technologies SAS, Villebon sur Yvette) and 10% fetal bovine serum (FBS, AbCys s.a., Paris). Cells were plated on 10-cm diameter tissue culture dish and grown in a 5% CO2 incubator at 37° C. with saturating humidity with medium changes every 2 days. […]
# H9c2 cardiac myoblasts [2] = assay: Lipid profiling (FAME, diglycerides, triglycerides, BODIPY-palmitate) in cardiac myoblasts
# Text: After ethical committee approval, all patients in this study gave written consent for sample collection and molecular analysis prior to inclusion. Patients were carefully selected by physicians from the Department of Cardiology, Toulouse University Hospital, prior to coronary by-pass surgery. Bioinformatics. Microarray expression data from human heart samples were downloaded from the GEO repository (GSE1145). This series consisted of 107 myocardial samples collected from patients undergoing cardiac transplantation whose failure arises from different etiologies (e.g. idiopathic dilated cardiomyopathy, ischemic cardiomyopathy, valvular cardiomyopathy, and hypertrophic cardiomyopathy) and from “normal” organ donors whose hearts cannot be used for transplants. Arrays were intensity normalized and hierarchical clustering (average group linkage, Pearson correlation, threshold r=0.8) was applied to identify groups of co-expressed genes. ApoO expression levels were plotted for the 107 human hearts tested and used to define relevant molecular pathways using both Toppgene and Ingenuity Pathway Analysis (Ingenuity systems, Redwood City, Calif., USA). ApoO subcellular localization was predicted using Mitopred, mitoprot and YLoc. Animals: All animal Studies followed the INSERM Institute Animal Facility guidelines and were approved by the animal care committees of the INSERM I2MC UMR 1048. All animal procedures were performed according to the guidelines of the French Ministry of Agriculture. Animals were housed at the Toulouse I2MC animal facility in a room lit 12 h per day (6 AM-6 PM) at an ambient temperature of 22+/−1° C. […] All ApoO sequences within the expression vectors were verified by DNA double strand sequencing using ABI PRISM®BigDye™ Terminator version 3.1 Ready reaction cycle sequencing kit (Life Technologies SAS, Villebon sur Yvette) and loaded on an ABI 3130XL DNA sequencing instrument (Life Technologies SAS, Villebon sur Yvette). […]
# Bax = Bax mRNA levels in cardiac myoblasts; conditions: ApoO cells vs control (FIG. 9f)
# Text: After ethical committee approval, all patients in this study gave written consent for sample collection and molecular analysis prior to inclusion. Patients were carefully selected by physicians from the Department of Cardiology, Toulouse University Hospital, prior to coronary by-pass surgery. Bioinformatics. Microarray expression data from human heart samples were downloaded from the GEO repository (GSE1145). This series consisted of 107 myocardial samples collected from patients undergoing cardiac transplantation whose failure arises from different etiologies (e.g. idiopathic dilated cardiomyopathy, ischemic cardiomyopathy, valvular cardiomyopathy, and hypertrophic cardiomyopathy) and from “normal” organ donors whose hearts cannot be used for transplants. Arrays were intensity normalized and hierarchical clustering (average group linkage, Pearson correlation, threshold r=0.8) was applied to identify groups of co-expressed genes. […] All ApoO sequences within the expression vectors were verified by DNA double strand sequencing using ABI PRISM®BigDye™ Terminator version 3.1 Ready reaction cycle sequencing kit (Life Technologies SAS, Villebon sur Yvette) and loaded on an ABI 3130XL DNA sequencing instrument (Life Technologies SAS, Villebon sur Yvette). […]
molecule,measurement,setting,value
B1,basal oxygen consumption,H9c2 cardiac myoblasts [1]; ApoO cells vs control cardiac myoblasts (FIG. 4A),two-fold increase
same,respiration coupling (RC),"H9c2 cardiac myoblasts [1]; ApoO cells vs control, CCCP / oligomycin oxygen consumption (FIG. 4C)",decreases
same,increase of total intracellular fatty acids,H9c2 cardiac myoblasts [2]; ApoO expressing cells vs control (FIG. 6E),120%
same,accumulation of green fluorescent BODIPY-palmitate,"H9c2 cardiac myoblasts [2]; ApoO expressing cells, 2 min incubation (FIG. 6D)",rapid accumulation
same,expression of Bax,Bax,increase
